{"source": "IntAct's records for PubMed 7758105", "parents": {"B1": {"name": "Tumor necrosis factor receptor superfamily member 1A (Homo sapiens), P19438 (parent)", "chain": "MGLSTVPDLLLPLVLLELLVGIYPSGVIGLVPHLGDREKRDSVCPQGKYIHPQNNSICCTKCHKGTYLYNDCPGPGQDTDCRECESGSFTASENHLRHCLSCSKCRKEMGQVEISSCTVDRDTVCGCRKNQYRHYWSENLFQCFNCSLCLNGTVHLSCQEKQNTVCTCHAGFFLRENECVSCSNCKKSLECTKLCLPQIENVKGTEDSGTTVLLPLVIFFGLCLLSLLFIGLMYRYQRWKSKLYSIVCGKSTPEKEGELEGTTTKPLAPNPSFSPTPGFTPTLGFSPVPSSTFTSSSTYTPGDCPNFAAPRREVAPPYQGADPILATALASDPIPNPLQKWEDSAHKPQSLDTDDPATLYAVVENVPPLRWKEFVRRLGLSDHEIDRLELQNGRCLREAQYSMLATWRRRTPRREATLELLGRVLRDMDLLGCLEDIEEALCGPAALPPAPSLLR", "partner": "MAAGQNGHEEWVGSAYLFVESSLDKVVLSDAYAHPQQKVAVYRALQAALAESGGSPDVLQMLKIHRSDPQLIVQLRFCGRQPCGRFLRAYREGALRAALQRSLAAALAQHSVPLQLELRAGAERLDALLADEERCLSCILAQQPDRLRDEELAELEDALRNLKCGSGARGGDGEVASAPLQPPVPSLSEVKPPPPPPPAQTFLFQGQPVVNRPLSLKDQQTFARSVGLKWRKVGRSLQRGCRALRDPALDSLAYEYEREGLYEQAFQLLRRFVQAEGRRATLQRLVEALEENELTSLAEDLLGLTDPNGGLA"}}, "data": [{"variants_of": "B1", "conditions": "with tradd_human TRADD", "values": [{"variant": "K372A;F374A;R376A", "effect of a mutation on the interaction": "decreasing interaction"}]}]}
